Each block holds one substance with its values, some of them ahead of it.
What was measured:
[1] = target: extracellular domain of human LEPR (amino acids 22-839 of P48357, Isoform B) with N-terminal myc-myc tag, GPI-anchored on HEK293 cells (HEK293/hLEPR-GPI) (human) (UniProt P48357); assay: FACS, HEK293/hLEPR-GPI, 1 uM Leptin
[2] = target: full length human LEPR (amino acids 1-1165 of P48357, Isoform B) on cells (human) (UniProt P48357); assay: FACS, HEK293/Stat3-luc/hLEPR-FL, no Leptin
[3] = target: extracellular domain of human LEPR (amino acids 22-839 of P48357, Isoform B) with N-terminal myc-myc tag, GPI-anchored on HEK293 cells (HEK293/hLEPR-GPI) (human) (UniProt P48357); assay: FACS, HEK293/hLEPR-GPI, no added Leptin
[4] = target: extracellular domain of human LEPR (amino acids 22-839 of P48357, Isoform B) with N-terminal myc-myc tag, GPI-anchored on HEK293 cells (HEK293/hLEPR-GPI) (human) (UniProt P48357); assay: FACS, HEK293/hLEPR-GPI, no Leptin
[5] = target: extracellular domain of human LEPR (amino acids 22-839 of P48357, Isoform B) with N-terminal myc-myc tag, GPI-anchored on HEK293 cells (HEK293/hLEPR-GPI) (human) (UniProt P48357); assay: FACS, 10 nM Ab, HEK293/hLEPR-GPI, 1 uM Leptin
[6] = target: human LEPR CRH1 (D1)-MMH (human) (UniProt P48357); assay: Luminex, myc-captured protein on beads
[7] = target: extracellular domain of human LEPR (amino acids 22-839 of P48357, Isoform B) with N-terminal myc-myc tag, GPI-anchored on HEK293 cells (HEK293/hLEPR-GPI) (human) (UniProt P48357); assay: FACS, 10 nM Ab, HEK293/hLEPR-GPI, no added Leptin
[8] = target: extracellular domain portion of LEPR protein expressed with a C-terminal human Fc tag (hLEPR.hFc) (human); assay: blocking ELISA, hLeptin coated
Sequence of extracellular domain portion of LEPR protein expressed with a C-terminal human Fc tag (hLEPR.hFc) (human) (chain, as listed by the source limits assumed): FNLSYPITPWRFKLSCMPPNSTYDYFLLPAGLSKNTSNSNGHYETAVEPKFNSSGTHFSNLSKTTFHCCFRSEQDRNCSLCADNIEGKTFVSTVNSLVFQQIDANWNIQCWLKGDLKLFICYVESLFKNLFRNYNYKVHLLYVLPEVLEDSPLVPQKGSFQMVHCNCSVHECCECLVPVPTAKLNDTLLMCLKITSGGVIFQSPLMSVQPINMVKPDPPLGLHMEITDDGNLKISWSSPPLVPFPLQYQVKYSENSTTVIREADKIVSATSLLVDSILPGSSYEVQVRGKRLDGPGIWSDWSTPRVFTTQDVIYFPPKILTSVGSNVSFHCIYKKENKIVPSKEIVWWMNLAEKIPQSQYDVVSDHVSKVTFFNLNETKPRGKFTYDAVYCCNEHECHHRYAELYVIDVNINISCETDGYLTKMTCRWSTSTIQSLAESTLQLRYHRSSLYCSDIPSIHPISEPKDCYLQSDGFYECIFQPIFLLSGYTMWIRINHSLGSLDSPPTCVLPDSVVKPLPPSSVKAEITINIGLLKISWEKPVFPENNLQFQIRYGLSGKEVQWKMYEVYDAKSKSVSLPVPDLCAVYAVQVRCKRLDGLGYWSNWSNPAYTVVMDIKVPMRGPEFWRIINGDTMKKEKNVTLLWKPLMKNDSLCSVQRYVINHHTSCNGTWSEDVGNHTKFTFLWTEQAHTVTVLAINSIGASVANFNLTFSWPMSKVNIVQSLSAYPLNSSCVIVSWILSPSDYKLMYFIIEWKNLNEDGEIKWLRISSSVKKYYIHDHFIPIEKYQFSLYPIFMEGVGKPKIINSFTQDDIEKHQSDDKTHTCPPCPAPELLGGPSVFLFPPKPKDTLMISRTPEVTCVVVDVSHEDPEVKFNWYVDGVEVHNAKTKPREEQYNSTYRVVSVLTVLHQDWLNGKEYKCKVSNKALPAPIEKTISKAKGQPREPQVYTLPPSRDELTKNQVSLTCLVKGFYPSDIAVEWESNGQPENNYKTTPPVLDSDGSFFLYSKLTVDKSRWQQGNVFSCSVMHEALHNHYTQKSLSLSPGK

[9] = target: extracellular domain of human LEPR (amino acids 22-839 of P48357, Isoform B) with N-terminal myc-myc tag, GPI-anchored on HEK293 cells (HEK293/hLEPR-GPI) (human) (UniProt P48357); assay: FACS, 70 nM Ab, HEK293/hLEPR-GPI, no Leptin
[10] = target: human LEPR extracellular domain expressed with a C-terminal myc-myc-hexahistidine tag (hLEPR.mmh) (human) (UniProt P48357); assay: SPR, captured mAb, 37C
Sequence of human LEPR extracellular domain expressed with a C-terminal myc-myc-hexahistidine tag (hLEPR.mmh) (human) (P48357 other isoform, or with tags, fused parts or gaps): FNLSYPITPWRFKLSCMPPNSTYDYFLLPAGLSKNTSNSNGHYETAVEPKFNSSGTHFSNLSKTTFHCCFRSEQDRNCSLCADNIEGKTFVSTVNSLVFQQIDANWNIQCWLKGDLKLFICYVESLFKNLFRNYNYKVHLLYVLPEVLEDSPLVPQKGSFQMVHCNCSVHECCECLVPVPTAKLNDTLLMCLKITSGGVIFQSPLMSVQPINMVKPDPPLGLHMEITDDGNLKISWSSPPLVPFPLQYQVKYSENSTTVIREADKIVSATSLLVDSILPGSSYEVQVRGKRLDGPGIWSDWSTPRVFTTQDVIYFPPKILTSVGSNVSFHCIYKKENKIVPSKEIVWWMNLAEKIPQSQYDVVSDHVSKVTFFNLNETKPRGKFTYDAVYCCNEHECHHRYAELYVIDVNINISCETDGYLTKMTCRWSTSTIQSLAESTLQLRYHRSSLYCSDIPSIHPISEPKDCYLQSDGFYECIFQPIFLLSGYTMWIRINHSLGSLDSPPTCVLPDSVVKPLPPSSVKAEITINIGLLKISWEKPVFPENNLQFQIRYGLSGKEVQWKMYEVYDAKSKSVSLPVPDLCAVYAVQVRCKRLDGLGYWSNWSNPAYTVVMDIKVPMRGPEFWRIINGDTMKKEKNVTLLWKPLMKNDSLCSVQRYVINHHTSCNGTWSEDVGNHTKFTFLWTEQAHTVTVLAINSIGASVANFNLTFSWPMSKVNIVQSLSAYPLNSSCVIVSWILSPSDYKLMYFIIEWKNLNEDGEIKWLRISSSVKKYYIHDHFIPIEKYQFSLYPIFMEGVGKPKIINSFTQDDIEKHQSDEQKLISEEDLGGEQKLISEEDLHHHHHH

[11] = target: human LEPR extracellular domain expressed with a C-terminal mouse IgG2a Fc tag (hLEPR.mFc) (human); assay: SPR, captured mAb, 37C
Sequence of human LEPR extracellular domain expressed with a C-terminal mouse IgG2a Fc tag (hLEPR.mFc) (human) (chain, as listed by the source limits assumed): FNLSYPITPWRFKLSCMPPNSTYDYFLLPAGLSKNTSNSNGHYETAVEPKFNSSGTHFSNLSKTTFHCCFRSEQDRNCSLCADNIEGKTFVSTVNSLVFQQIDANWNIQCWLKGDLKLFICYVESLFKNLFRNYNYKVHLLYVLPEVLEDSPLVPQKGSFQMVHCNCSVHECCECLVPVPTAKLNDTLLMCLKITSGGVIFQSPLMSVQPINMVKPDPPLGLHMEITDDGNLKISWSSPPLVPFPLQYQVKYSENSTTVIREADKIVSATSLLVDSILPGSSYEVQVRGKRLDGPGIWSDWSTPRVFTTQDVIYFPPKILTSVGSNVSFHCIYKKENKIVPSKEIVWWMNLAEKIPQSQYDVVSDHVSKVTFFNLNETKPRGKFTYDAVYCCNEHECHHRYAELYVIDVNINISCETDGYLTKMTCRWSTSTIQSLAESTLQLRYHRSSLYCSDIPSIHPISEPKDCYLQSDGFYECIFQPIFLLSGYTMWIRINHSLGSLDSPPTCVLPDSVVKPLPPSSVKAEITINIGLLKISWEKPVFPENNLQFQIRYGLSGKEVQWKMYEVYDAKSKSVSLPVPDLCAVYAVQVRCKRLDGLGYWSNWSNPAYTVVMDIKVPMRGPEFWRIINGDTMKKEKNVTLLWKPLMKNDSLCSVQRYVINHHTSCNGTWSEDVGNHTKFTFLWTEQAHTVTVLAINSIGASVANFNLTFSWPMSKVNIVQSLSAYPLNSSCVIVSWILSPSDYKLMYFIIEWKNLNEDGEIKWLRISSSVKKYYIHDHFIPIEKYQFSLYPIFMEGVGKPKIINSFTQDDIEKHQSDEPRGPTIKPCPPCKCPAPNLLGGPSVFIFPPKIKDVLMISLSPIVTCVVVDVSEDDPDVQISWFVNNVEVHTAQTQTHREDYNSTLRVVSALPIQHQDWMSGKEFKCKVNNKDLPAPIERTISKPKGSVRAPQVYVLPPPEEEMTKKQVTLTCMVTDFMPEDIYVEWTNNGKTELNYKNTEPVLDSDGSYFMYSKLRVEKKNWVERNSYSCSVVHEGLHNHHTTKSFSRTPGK

[12] = target: Macaca fascicularis LEPR extracellular domain expressed with a C-terminal myc-myc-hexahistidine tag (mfLEPR.mmh) (Macaca fascicularis); assay: SPR, captured mAb, 37C
[13] = target: human LEPR extracellular domain expressed with a C-terminal myc-myc-hexahistidine tag (hLEPR.mmh) (human) (UniProt P48357); assay: SPR, captured mAb, 25C
[14] = target: human LEPR extracellular domain expressed with a C-terminal mouse IgG2a Fc tag (hLEPR.mFc) (human); assay: SPR, captured mAb, 25C
[15] = target: Macaca fascicularis LEPR extracellular domain expressed with a C-terminal myc-myc-hexahistidine tag (mfLEPR.mmh) (Macaca fascicularis); assay: SPR, captured mAb, 25C
[16] = target: full length human LEPR (amino acids 1-1165 of P48357, Isoform B) on cells (human) (UniProt P48357); assay: FACS, 70 nM Ab, HEK293/Stat3-luc/hLEPR-FL, no Leptin

Sequence of extracellular domain of human LEPR (amino acids 22-839 of P48357, Isoform B) with N-terminal myc-myc tag, GPI-anchored on HEK293 cells (HEK293/hLEPR-GPI) (human) (P48357 22-839, one chain of several): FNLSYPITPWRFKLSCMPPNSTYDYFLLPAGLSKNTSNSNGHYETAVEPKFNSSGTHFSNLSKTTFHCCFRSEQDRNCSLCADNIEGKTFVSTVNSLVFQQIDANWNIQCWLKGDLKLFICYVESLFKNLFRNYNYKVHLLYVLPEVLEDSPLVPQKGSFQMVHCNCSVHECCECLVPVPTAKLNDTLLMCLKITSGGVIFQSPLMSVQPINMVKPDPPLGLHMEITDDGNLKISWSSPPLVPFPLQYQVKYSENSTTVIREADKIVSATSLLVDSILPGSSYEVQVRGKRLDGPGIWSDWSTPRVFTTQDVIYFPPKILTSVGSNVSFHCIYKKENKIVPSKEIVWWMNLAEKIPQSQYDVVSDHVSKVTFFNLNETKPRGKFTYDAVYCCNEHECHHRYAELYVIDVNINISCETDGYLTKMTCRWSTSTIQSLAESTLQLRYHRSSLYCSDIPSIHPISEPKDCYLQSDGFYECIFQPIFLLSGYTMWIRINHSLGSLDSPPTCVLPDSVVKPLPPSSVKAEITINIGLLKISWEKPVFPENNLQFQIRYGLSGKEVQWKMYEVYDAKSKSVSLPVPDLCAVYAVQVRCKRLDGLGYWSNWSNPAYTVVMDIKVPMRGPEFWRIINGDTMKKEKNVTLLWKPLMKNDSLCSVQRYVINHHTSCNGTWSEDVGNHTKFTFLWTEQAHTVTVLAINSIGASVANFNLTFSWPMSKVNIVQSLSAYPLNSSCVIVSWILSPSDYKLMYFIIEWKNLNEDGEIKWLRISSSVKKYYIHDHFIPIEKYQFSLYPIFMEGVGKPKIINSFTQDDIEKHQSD
Sequence of full length human LEPR (amino acids 1-1165 of P48357, Isoform B) on cells (human) (P48357 22-1165): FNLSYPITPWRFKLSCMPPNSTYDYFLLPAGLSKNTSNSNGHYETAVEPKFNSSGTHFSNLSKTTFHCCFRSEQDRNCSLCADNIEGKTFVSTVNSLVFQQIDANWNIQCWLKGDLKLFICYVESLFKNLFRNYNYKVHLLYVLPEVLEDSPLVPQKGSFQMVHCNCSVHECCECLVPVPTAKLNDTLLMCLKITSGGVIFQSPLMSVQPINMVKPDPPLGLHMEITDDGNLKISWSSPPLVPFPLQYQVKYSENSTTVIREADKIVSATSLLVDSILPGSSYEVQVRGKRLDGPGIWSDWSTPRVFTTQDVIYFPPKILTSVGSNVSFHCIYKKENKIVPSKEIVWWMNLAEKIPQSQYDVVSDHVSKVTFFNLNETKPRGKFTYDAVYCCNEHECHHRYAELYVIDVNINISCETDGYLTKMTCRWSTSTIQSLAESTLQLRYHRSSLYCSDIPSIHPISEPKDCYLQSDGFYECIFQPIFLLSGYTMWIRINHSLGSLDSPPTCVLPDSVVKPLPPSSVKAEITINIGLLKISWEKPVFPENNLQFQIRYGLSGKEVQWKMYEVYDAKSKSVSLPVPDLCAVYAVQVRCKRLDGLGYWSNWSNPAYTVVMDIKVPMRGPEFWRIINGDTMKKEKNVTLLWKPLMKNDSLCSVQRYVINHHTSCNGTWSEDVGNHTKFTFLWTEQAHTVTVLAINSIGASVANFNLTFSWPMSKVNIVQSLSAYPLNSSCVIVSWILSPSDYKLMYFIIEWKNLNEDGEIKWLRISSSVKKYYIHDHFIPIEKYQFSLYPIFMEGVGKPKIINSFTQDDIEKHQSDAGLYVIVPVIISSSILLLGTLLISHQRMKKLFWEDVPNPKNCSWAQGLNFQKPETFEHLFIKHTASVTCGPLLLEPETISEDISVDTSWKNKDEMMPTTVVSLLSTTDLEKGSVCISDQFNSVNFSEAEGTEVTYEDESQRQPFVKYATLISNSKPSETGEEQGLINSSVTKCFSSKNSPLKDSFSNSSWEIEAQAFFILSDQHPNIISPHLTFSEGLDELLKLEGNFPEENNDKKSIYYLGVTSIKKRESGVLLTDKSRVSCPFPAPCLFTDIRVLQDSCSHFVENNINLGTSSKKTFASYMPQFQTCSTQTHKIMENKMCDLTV

Binding Ratio (normalized to unstained) [1]: 3 fold
Binding Ratio (normalized to unstained) [2]: 1 fold
Binding Ratio (normalized to unstained) [3]: 3 fold
Binding Ratio (normalized to unstained) [4]: 1 fold
Substance: Alexa Fluor-647 conjugated secondary antibody (Jackson ImmunoResearch Laboratories Inc., #109-547-003), alone

Binding Ratio (normalized to unstained) [5]: 112 fold
Luminex MFI [6]: 14 MFI
Binding Ratio (normalized to unstained) [7]: 2350 fold
500 nM Ab Blocking of 10 nM hLEPR.hFc Binding to hLeptin (% blockade) [8]: 99%
Substance: Comparator mAb (Fab9F8 described in Fazeli et al. 2006 and Carpenter et al. 2012) (antibody)

Binding Ratio (normalized to unstained) [9]: 2 fold
Binding Ratio (normalized to unstained) [5]: 4 fold
100 nM hLEPR-MMH Bound (RU) [10]: 6 RU
100 nM hLEPR-mFc Bound (RU) [11]: 1 RU
100 nM mfLEPR.MMH Bound (RU) [12]: 1 RU
100 nM hLEPR-mmH Bound (RU) [13]: 4 RU
100 nM hLEPR-mFc Bound (RU) [14]: -2 RU
100 nM mfLEP.MMH Bound (RU) [15]: 0 RU
Binding Ratio (normalized to unstained) [16]: 2 fold
Binding Ratio (normalized to unstained) [7]: 6 fold
500 nM Ab Blocking of 10 nM hLEPR.hFc Binding to hLeptin (% blockade) [8]: -3%
Substance: Isotype Control monoclonal antibody

500 nM Ab Blocking of 10 nM hLEPR.hFc Binding to hLeptin (% blockade) [8]: 32%
Substance: Mouse IgG2a Isotype control (antibody)
